Reference: paper PMC9482650, “Quantitative fragmentomics allow affinity mapping of interactomes” (Nature Communications, 2022)

Legend:
Assay in all cases: holdup assay
Parameters in all cases: key: below the threshold = too weak to quantify, mostly under pKd 3.1 to 4
Conditions in all cases: plain residues with an end cap or a label only (N-terminal biotin on a linker: ttds)
Inadl_2, Q8NI35 = molecular target: Inadl_2, Q8NI35
APBA1_2, Q02410 = molecular target: T1, APBA1_2, Q02410
T1 sequence (Q02410 742-832, limits assumed, looked up): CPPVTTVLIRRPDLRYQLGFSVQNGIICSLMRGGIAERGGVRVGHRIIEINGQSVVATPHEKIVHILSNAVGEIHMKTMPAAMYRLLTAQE

Inadl_8, Q8NI35 = molecular target: Inadl_8, Q8NI35
DLG4_2, P78352 = molecular target: DLG4_2, P78352
LNX2_2, Q8N448 = molecular target: T2, LNX2_2, Q8N448
T2 sequence (Q8N448 334-432, limits assumed, looked up): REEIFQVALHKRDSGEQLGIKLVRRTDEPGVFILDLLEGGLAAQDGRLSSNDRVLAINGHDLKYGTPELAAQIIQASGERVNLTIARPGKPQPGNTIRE

PTPN13_1, Q12923 = molecular target: T3, PTPN13_1, Q12923
T3 sequence (Q12923 1088-1188, limits assumed, looked up): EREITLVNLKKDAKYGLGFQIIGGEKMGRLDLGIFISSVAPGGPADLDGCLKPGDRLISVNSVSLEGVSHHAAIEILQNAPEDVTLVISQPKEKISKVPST

NOS1, P29475 = molecular target: NOS1, P29475
Inadl_4, Q8NI35 = molecular target: Inadl_4, Q8NI35
SYNJ2BP, P57105 = molecular target: T4, SYNJ2BP, P57105
T4 sequence (P57105 8-110, limits assumed, looked up): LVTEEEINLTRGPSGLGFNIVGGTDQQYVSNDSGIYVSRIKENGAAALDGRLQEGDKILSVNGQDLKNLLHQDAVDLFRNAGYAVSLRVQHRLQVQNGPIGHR

MPP7, Q5T2T1 = molecular target: T5, MPP7, Q5T2T1
T5 sequence (Q5T2T1 134-230, limits assumed, looked up): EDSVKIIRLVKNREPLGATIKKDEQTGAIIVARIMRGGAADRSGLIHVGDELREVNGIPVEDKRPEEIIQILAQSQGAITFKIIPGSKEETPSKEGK

MAGI1_1, Q96QZ7 = molecular target: MAGI1_1, Q96QZ7
PDZRN4_1, Q6ZMN7 = molecular target: PDZRN4_1, Q6ZMN7
GIPC2, Q8TF65 = molecular target: GIPC2, Q8TF65
SNX27, Q96L92 = molecular target: SNX27, Q96L92
GRIP2_4, Q9C0E4 = molecular target: GRIP2_4, Q9C0E4
SNTG1, Q9NSN8 = molecular target: T6, SNTG1, Q9NSN8
T6 sequence (Q9NSN8 52-150, limits assumed, looked up): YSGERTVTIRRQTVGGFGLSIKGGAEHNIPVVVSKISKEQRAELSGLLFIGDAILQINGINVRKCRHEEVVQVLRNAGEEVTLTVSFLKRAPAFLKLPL

APBA2_2, Q99767 = molecular target: T7, APBA2_2, Q99767
T7 sequence (Q99767 654-744, limits assumed, looked up): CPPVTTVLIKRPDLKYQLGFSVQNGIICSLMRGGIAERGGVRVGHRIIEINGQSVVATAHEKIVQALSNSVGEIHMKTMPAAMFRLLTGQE

LIN7A, O14910 = molecular target: T8, LIN7A, O14910
T8 sequence (O14910 103-200, limits assumed, looked up): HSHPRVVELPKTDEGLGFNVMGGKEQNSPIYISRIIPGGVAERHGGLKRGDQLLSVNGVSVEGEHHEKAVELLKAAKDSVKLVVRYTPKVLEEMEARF

ARHGEF11, O15085 = molecular target: T9, ARHGEF11, O15085
T9 sequence (O15085 42-136, limits assumed, looked up): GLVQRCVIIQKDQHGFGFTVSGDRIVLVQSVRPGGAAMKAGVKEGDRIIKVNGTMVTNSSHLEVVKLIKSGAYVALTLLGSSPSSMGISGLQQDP

PARD3_3, Q8TEW0 = molecular target: PARD3_3, Q8TEW0
NHERF3_3, Q5T2W1 = molecular target: T10, NHERF3_3, Q5T2W1
T10 sequence (Q5T2W1 238-333, limits assumed, looked up): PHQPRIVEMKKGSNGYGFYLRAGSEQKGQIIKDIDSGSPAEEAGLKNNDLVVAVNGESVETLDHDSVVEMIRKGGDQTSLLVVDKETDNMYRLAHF

IL16_4, Q14005 = molecular target: IL16_4, Q14005
DLG4_1, P78352 = molecular target: DLG4_1, P78352
GRIP1_2, Q9Y3R0 = molecular target: T11, GRIP1_2, Q9Y3R0
T11 sequence (Q9Y3R0 145-248, limits assumed, looked up): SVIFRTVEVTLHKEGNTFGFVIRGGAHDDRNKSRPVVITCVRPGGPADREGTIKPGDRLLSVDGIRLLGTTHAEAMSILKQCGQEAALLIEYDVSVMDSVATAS

SNTA1, Q13424 = molecular target: T12, SNTA1, Q13424
T12 sequence (Q13424 82-180, limits assumed, looked up): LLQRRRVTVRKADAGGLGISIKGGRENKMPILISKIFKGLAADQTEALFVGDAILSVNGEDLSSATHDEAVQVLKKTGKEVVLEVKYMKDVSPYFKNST

PICK1, Q9NRD5 = molecular target: PICK1, Q9NRD5
Chain of PICK1, Q9NRD5 (Q9NRD5 17-115): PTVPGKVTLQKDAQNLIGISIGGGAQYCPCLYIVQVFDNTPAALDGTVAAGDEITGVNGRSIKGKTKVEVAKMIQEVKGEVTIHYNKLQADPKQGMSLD

Chain of PARD3_3, Q8TEW0 (Q8TEW0 582-685): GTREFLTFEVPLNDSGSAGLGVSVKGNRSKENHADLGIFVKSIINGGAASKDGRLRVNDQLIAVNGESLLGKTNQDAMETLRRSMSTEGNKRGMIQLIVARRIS
Chain of DLG4_2, P78352 (P78352 155-259): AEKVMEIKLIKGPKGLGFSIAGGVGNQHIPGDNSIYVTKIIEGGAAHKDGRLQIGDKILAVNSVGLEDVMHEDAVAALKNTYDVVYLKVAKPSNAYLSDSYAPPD
Chain of NOS1, P29475 (P29475 9-101): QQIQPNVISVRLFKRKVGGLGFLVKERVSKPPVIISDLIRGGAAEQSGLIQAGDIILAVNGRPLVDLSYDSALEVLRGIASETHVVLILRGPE
Chain of MAGI1_1, Q96QZ7 (Q96QZ7 1-106): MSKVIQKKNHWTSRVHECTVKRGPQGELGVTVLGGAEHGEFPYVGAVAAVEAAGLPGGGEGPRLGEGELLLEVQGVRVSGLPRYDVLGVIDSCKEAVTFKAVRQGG
Chain of DLG4_1, P78352 (P78352 62-152): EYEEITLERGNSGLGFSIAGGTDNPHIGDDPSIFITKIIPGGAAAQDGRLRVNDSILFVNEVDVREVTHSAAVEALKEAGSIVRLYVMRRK
Chain of Inadl_4, Q8NI35 (Q8NI35 547-651): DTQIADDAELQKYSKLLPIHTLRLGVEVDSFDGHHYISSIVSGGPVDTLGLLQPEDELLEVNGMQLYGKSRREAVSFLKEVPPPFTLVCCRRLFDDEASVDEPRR
Chain of Inadl_8, Q8NI35 (Q8NI35 1425-1530): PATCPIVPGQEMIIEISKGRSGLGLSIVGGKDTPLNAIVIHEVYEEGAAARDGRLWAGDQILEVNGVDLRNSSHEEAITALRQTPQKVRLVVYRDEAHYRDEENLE
Chain of IL16_4, Q14005 (Q14005 1229-1329): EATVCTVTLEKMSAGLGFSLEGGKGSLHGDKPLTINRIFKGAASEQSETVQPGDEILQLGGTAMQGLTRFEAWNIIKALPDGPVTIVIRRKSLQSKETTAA
Chain of Inadl_2, Q8NI35 (Q8NI35 238-335): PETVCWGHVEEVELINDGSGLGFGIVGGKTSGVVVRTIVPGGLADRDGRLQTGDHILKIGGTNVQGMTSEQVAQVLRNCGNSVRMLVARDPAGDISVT
Chain of GIPC2, Q8TF65 (Q8TF65 112-203): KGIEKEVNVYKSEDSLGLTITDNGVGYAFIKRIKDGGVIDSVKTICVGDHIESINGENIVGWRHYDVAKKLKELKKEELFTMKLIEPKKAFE
Chain of PDZRN4_1, Q6ZMN7 (Q6ZMN7 213-318): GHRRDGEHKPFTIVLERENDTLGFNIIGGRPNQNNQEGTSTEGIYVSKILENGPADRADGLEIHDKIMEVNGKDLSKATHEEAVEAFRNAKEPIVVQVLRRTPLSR
Chain of GRIP2_4, Q9C0E4 (Q9C0E4 446-548): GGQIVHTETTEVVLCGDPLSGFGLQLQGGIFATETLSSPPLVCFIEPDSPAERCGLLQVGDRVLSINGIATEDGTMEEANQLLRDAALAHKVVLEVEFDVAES

For NQLAWFDTDL [CTNNB1, P35222], the pKd (Inadl_2, Q8NI35) was “below the threshold”, the pKd (APBA1_2, Q02410) was “below the threshold” and the pKd (Inadl_8, Q8NI35) was “below the threshold”. The pKd (DLG4_2, P78352) was “below the threshold”, the pKd (LNX2_2, Q8N448) was “below the threshold” and the pKd (PTPN13_1, Q12923) was “below the threshold”. For the same binder, the pKd (NOS1, P29475) was “below the threshold”, the pKd (Inadl_4, Q8NI35) was “below the threshold” and the pKd (SYNJ2BP, P57105) was 4.09. The pKd (MPP7, Q5T2T1) was “below the threshold”, the pKd (MAGI1_1, Q96QZ7) was “below the threshold” and the pKd (PDZRN4_1, Q6ZMN7) was “below the threshold”. The pKd (GIPC2, Q8TF65) was 3.8, the pKd (SNX27, Q96L92) was 4.91 and the pKd (GRIP2_4, Q9C0E4) was “below the threshold”. The pKd (SNTG1, Q9NSN8) was 3.71, the pKd (APBA2_2, Q99767) was “below the threshold” and the pKd (LIN7A, O14910) was “below the threshold”. For the same binder, the pKd (ARHGEF11, O15085) was 3.77, the pKd (PARD3_3, Q8TEW0) was “below the threshold” and the pKd (NHERF3_3, Q5T2W1) was “below the threshold”. For the same binder, the pKd (IL16_4, Q14005) was “below the threshold”, the pKd (DLG4_1, P78352) was “below the threshold” and the pKd (GRIP1_2, Q9Y3R0) was “below the threshold”. The pKd (SNTA1, Q13424) was “below the threshold” and the pKd (PICK1, Q9NRD5) was “below the threshold”.
